The results in this text go back to paper PMC4661536, “Structural delineation of stem-loop RNA binding by human TAF15 protein”.

Common to all, as to details: protein: recombinant; hairpin, 8 bp stem, 9 nt loop
Series [1] has as its target TAF15-RRM (Homo sapiens, UniProt Q92804 231-323). Briefly: ITC; N = 0.72; ITC: 10 mM HEPES pH 7.0, 20 mM Na2SO4 (+5 mM beta-mercaptoethanol for RRM-RanBP2 constructs), 298 K, 1 mM RNA into 100 uM protein. NMR: 20 mM Na phosphate pH 6.2, 25 mM NaCl, 5% D2O (RRM) or 25 mM Na2SO4, 5 mM beta-mercaptoethanol (TAF15-RRM-RanBP2), 298 K. A general note: Isothermal titration calorimetry measures the heat released or taken up as one component is titrated into another.

Series [2] addresses FUS-RRM-RanBP2 (Homo sapiens, UniProt P35637 282-454). Briefly: ITC; N = 0.7; 5 mM beta-mercaptoethanol; ITC: 10 mM HEPES pH 7.0, 20 mM Na2SO4 (+5 mM beta-mercaptoethanol for RRM-RanBP2 constructs), 298 K, 1 mM RNA into 100 uM protein. NMR: 20 mM Na phosphate pH 6.2, 25 mM NaCl, 5% D2O (RRM) or 25 mM Na2SO4, 5 mM beta-mercaptoethanol (TAF15-RRM-RanBP2), 298 K.
Series [3] concerns the target T1, FUS-RRM (Homo sapiens, UniProt P35637 282-374). Briefly: ITC; sequential site N2; ITC: 10 mM HEPES pH 7.0, 20 mM Na2SO4 (+5 mM beta-mercaptoethanol for RRM-RanBP2 constructs), 298 K, 1 mM RNA into 100 uM protein. NMR: 20 mM Na phosphate pH 6.2, 25 mM NaCl, 5% D2O (RRM) or 25 mM Na2SO4, 5 mM beta-mercaptoethanol (TAF15-RRM-RanBP2), 298 K.
Series [4] has as its target T1, FUS-RRM. Kind of series: ITC; average over three sequential sites; ITC: 10 mM HEPES pH 7.0, 20 mM Na2SO4 (+5 mM beta-mercaptoethanol for RRM-RanBP2 constructs), 298 K, 1 mM RNA into 100 uM protein. NMR: 20 mM Na phosphate pH 6.2, 25 mM NaCl, 5% D2O (RRM) or 25 mM Na2SO4, 5 mM beta-mercaptoethanol (TAF15-RRM-RanBP2), 298 K.
The target of series [5] is TAF15-RRM-RanBP2 (Homo sapiens, UniProt Q92804 231-388). Briefly: ITC; N = 0.8; 5 mM beta-mercaptoethanol; ITC: 10 mM HEPES pH 7.0, 20 mM Na2SO4 (+5 mM beta-mercaptoethanol for RRM-RanBP2 constructs), 298 K, 1 mM RNA into 100 uM protein. NMR: 20 mM Na phosphate pH 6.2, 25 mM NaCl, 5% D2O (RRM) or 25 mM Na2SO4, 5 mM beta-mercaptoethanol (TAF15-RRM-RanBP2), 298 K.
Series [6] concerns the target T1, FUS-RRM. Briefly: ITC; sequential site N3; ITC: 10 mM HEPES pH 7.0, 20 mM Na2SO4 (+5 mM beta-mercaptoethanol for RRM-RanBP2 constructs), 298 K, 1 mM RNA into 100 uM protein. NMR: 20 mM Na phosphate pH 6.2, 25 mM NaCl, 5% D2O (RRM) or 25 mM Na2SO4, 5 mM beta-mercaptoethanol (TAF15-RRM-RanBP2), 298 K.
Series [7] addresses T1, FUS-RRM. Kind of series: ITC; sequential site N1; ITC: 10 mM HEPES pH 7.0, 20 mM Na2SO4 (+5 mM beta-mercaptoethanol for RRM-RanBP2 constructs), 298 K, 1 mM RNA into 100 uM protein. NMR: 20 mM Na phosphate pH 6.2, 25 mM NaCl, 5% D2O (RRM) or 25 mM Na2SO4, 5 mM beta-mercaptoethanol (TAF15-RRM-RanBP2), 298 K.

T1 sequence (P35637 282-374): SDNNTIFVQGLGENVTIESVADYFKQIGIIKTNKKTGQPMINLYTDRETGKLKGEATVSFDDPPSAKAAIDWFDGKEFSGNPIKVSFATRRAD
Chain of FUS-RRM-RanBP2 (P35637 282-454): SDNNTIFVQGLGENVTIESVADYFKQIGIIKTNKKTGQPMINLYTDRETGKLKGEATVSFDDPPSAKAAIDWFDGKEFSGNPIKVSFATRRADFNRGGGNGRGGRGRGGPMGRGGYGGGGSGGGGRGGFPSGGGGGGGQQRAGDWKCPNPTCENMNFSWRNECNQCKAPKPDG
Chain of TAF15-RRM (Q92804 231-323): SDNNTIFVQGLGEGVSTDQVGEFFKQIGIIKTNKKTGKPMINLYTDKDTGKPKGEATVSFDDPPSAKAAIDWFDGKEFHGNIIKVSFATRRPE
Chain of TAF15-RRM-RanBP2 (Q92804 231-388): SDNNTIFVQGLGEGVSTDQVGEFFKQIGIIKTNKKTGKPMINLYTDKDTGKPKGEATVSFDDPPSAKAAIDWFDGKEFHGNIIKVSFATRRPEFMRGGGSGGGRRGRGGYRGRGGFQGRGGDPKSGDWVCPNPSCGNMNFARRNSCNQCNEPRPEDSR

Broadly, the Kd is the concentration at which binding is half-saturated. In the case of CGUAUCUUUAACUACUCAAGAUACG (structured_RNA) [SON stem-loop RNA], the Kd was 10 ± 1 µM in series [1]; 8 ± 0.7 µM in series [2]; 13 ± 1.6 µM in series [3]; 11 µM in series [4]; 6 ± 0.7 µM in series [5]; 12 ± 0.3 µM in series [6]. Also, the Kd in series [7] amounted to 10 ± 1 µM.
